# In the nanobody polyreactivity screen of Harvey et al. (2022):
# Assay: yeast display, Sf9 membrane polyspecificity reagent, FACS + sequencing; frameworks hold sequencing errors
# Outline: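 A synthetic nanobody library was expressed on Saccharomyces cerevisiae BJ5465 by galactose induction for 36–48 hours. The library was stained for 1 hour at 4 °C with 10% biotinylated, detergent-solubilized Sf9 membrane reagent and enriched with streptavidin microbeads before FACS. Low and high (top ~1%) gates were set on anti-HA fluorescence for expression and streptavidin fluorescence for reagent binding, and each polyreactivity label reflects the gate of origin.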
row,Sequence,polyreactivity (PSR sort gate)
1,QVQLVESGGGLVQAGGSLRLICAASGFIFLDYAMGWSRPAPGKERELVAAISSRGARTYYADSVKGRFTISRDNEKNTVYLQMNSLKPEDTAVYYCAARGPLDRYGYWGQGTQVTVSS,high polyreactivity
2,QVQLVESGGGLVQAGGSLRLICAASGFIFNAYAMGWYRQAPGKERELVAAISTRGSNTYYADSVKGRFTISRDNAKNTVYLQMNSLKPEDTAVYYCNRVFSYQYKRDYWGQGTQVTVSS,high polyreactivity
3,QVQLVESGGGLVQAGGSLRLICAASGFIFPDYTMGWYRHAPGKERELVAAINVSGGSTYYADSVKGRFTISRDHAKNTVYLQMNSLKPEDTAVYYCAAVGGRFVRRSTMDYWGQGTQVTVSS,low polyreactivity
4,QVQLVESGGGLVQAGGSLRLICAASGFIFRRYAMGWYRQSPGKERELVAAISSRGGSTYYADSVKGRFTISRDNAKNTVYLQMNSLKPEDTAVYYCAAYDAVTYPFDYWGQGTQVTVSS,high polyreactivity
5,QVQLVESGGGLVQAGGSLRLICAASGFIIRYYAMGWYRQAPGKERELVAVISASGGSTYYADSVKGRFTISRDNAKNTVYLQMNSLKPEDTAVYYCNTKRYFFHRGDMDYWGQGTQVTVSS,high polyreactivity
6,QVQLVESGGGLVQAGGSLRLICAASGFIIYSYAMGWYRQAPGKERELVAGITSDGRTYYADSVKGRFTISRDNAKNTVYLQMNSQKPEDTAVSYCAARYYLFYRVSPYYYWGQGTQVTVSS,low polyreactivity
7,QVQLVESGGGLVQAGGSLRLICAASGFISNINVMGWYRQAPGKERELVAAITYIDGSTFYADSVKGRFTISRDNAKNTVYLQMNSLKPEDTAVYYCAKTRVRGSEFGYWGQGTQVTVSS,low polyreactivity
8,QVQLVESGGGLVQAGGSLRLICAASGFTFDANAMGWYRQAPGKERELVAAITRVGSTFYADSVKGRFTISRDNAKNTVYLQMNSLKPEDTAVYYCNAARDHVSGYVYWGQGTQVTVSS,low polyreactivity
9,QVQLVESGGGLVQAGGSLRLICAASGFTFEYYAMGWYRQAPGKERELVAAISGSGVSTYYADSVKGRFTISRDNAKNTVYLQMNSLNPEDTAVYYCAALGDKYGSNRLDHYWYIWYDSWGQGTQVTVSS,low polyreactivity
10,QVQLVESGGGLVQAGGSLRLICAASGFTFFAYAMGWYRQAPGKERELVAGISRSGGRTYYADSVKGRFTISRDNAKNTVYLQMNSLKPEDTAVYYCAAGIPVTSRFYGMDWGQGTQVTVSS,high polyreactivity
11,QVQLVESGGGLVQAGGSLRLICAASGFTFGYYAMGWYRQAPGKERELVAAITSRGTRTSYADSVKGRFTISRDNEKNTVYLQMNSLKPEDTAVNYCAARVLRGLGEYYWGQGTQVTVSS,high polyreactivity
12,QVQLVESGGGLVQAGGSLRLICAASGFTFSINTRGWYRQAPGKEREFVAGISRSGGSTYYADSVKGRFTISRDNAKNTVYLQMNSLKPEDTAVYYCNADRYSWYTPLGYDYWGQGTQVNVSS,high polyreactivity
13,QVQLVESGGGLVQAGGSLRLICAASGFTFVRYTMGWYRQAPGKERELVAVIRRGGSTYYADSVKGRFTISRDNAKNTVYLQMNSLKPEDTAVYYCNALSALAVEDGYWGQGTQVTVSS,low polyreactivity
14,QVQLVESGGGLVQAGGSLRLICAASGGIFDFYAMGWYRQAPGKERELVAAITRSGSSTFYADSVKGRFTISRDNAKNTVYLQMNSLKPEDTAVYYCAAPYYYFAVYYGYIFEYDYWGQGTQVTVSS,low polyreactivity
15,QVQLVESGGGLVQAGGSLRLICAASGGISLYYVKGWYRQAPGKERELVADISGDDSTNYADSVKGRFTISRDNAKNTVYLQMNSLKPEDTAVYYSAAVPGLFYLPYDYWGQGTQVTVSS,low polyreactivity
16,QVQLVESGGGLVQAGGSLRLICAASGGTFRYYTMVWYRQAPGKERELVAAITRGGRTYYADSVKGRFTISRDNAKNTVYIQMNSLKPEDTAVYYCAGVRPRSPVSYENDYWGQGTQVTVSS,high polyreactivity
17,QVQLVESGGGLVQAGGSLRLICAASGIFSYYARGWYRQAPGKERELVATISRRGSSTYYADSVKGRFTISRDNAKNTVYLQMNSLKPEDTAVYYCNADIGWGRFSQSFDYWGQGTQVTVSS,low polyreactivity
18,QVQLVESGGGLVQAGGSLRLICAASGIIFDPNAMGWYRQAPGKERELVAAITHTGSTSYADSVKGRFTISRDNAKNTVYLQMNRLNPEDTAVYYCAAGTWVRAWYRYWYDFEYWGQGTQVTVSS,high polyreactivity
19,QVQLVESGGGLVQAGGSLRLICAASGIIFFDYAMGWYRQAPGKEREMVAAISSGGGNTYYADSVKGRFTISRDNAKNTVYLQMNSLKPEDTAVYYCAAEPYIYGEQGAYDYWGQGTQVTVSS,low polyreactivity
20,QVQLVESGGGLVQAGGSLRLICAASGIIFNYNAMGWYRQAPGNERELVATISSGDSTNYADSVKGRFTISRDNAKNTVYLQMNSLKPEDTAVYYCAAESPSVFEGYAQLYIILEDYWGQGTQVTVSS,low polyreactivity

row,Sequence,polyreactivity (PSR sort gate)
1,QVQLVESGGGLVQAGGSLRLICAASGIIFPFYVMGWYRQAPGKERELVAAITWSGDGTYYADSVKGRFTISRDNAKNTVYLQMNSLKPEDTAVYYCAAQWYYGGVKYYYWGQGTIVTVSS,low polyreactivity
2,QVQLVESGGGLVQAGGSLRLICAASGIILAYAMGWYRQAPGKERELVAAISGRAGSTYYADSVKGRFTISRDNAKNTVYLHMNSLTPEDTAVYYCAKRISYLPVEMDYWGQGTQVTVSS,low polyreactivity
3,QVQLVESGGGLVQAGGSLRLICAASGIILGHKAMGWYRQAPGKERELVATITTRGGSTYYADSVKGRFTISRDNAKNTVYLQMNSLKPEDTAVFYCAARPYKSLHYWYDYWGQGTQVTVSS,low polyreactivity
4,QVQLVESGGGLVQAGGSLRLICAASGITFPHYAMGWYRQAPGKEREYVAAISKRAGSTYYADSVKGRFTISLDNAKNTVYLQMNSLKPEDTSVYYCAADDRYYSPYGFKYWGQCTQVTVSS,high polyreactivity
5,QVQLVESGGGLVQAGGSLRLICAASGITFPINTKGWYRQAPGKERELVAGIDWTGGSTYYADSVKGRFTISRDNAKNTVYLQMNSLKPEDTAVYYCAAEFFREGSPRAGSKMDYWGQGTQVTVSS,low polyreactivity
6,QVQLVESGGGLVQAGGSLRLICAASGITFSVYTMGWYRQAPGKERELVAAIDSDGITNYADSVKGRFTISRDNAKNTVYLQLNSLKPEDTAVYYCAKQSGRADGVSGFDYWGQGTQVTVSS,low polyreactivity
7,QVQLVESGGGLVQAGGSLRLICAASGITFYIYGMGWYRQAPGKERELVAAITSGGSTYYADSVKGRFTISRDNAKNTVYLQMNSLKPEDTAVYYCAAGRYYGKGYYYWGQGTQVTVSS,high polyreactivity
8,QVQLVESGGGLVQAGGSLRLICAASGITFYRYDMGWYRQAPGKERELVAAISTRGGSTYYADSVKGRFTISRDNAKNTVYLQMNSLKPEDTAVYYCAKERVGTSLPFKDYYWGQGTQVTVSS,low polyreactivity
9,QVQLVESGGGLVQAGGSLRLICAASGITTRSNAMGWYRQAPGKERDFVAAITSRGGSTYYAYSVKGRFTISRDNAKNTVYLQMNSLKPEDTAVYYCAKGKYPDKKSRHVTLYDYWGQGTQVTVSS,high polyreactivity
10,QVQLVESGGGLVQAGGSLRLICAASGITYRYAMGWYRQAPGKERELVAAITSSGASTYYADSVKGRFTISRDNAKNTVYLQMNSLKPEDTAVYYCATPLRKVYGGYVYWGQGTQVTVSS,low polyreactivity
11,QVQLVESGGGLVQAGGSLRLICAASGLIFGKYAMGWYRQAPGKEREFVAAITRSGGSTYYADSVKGRFTISRDNAKNTVYLQMNSLKPEDTAVYYCAAYSLKYYNGYDYWGQGTQVTVSS,high polyreactivity
12,QVQLVESGGGLVQAGGSLRLICAASGLIFYRNAMGWYRQAPGKERELVAAISSGGRTYYADSVKGRFTISRDNEKNTVYLQMNSLKPEDTAVYYCAASYWKPHRESGYDYWGQGTQVTVSS,high polyreactivity
13,QVQLVESGGGLVQAGGSLRLICAASGLTFDTYSMGWYRQAPGKERELVAAISIGGRTNYADSVKGRFTISRDNAKNTVYLQMNSLKPEDTAVYYCARVFRYNSYYLPYDYWGQGTQVTVSS,high polyreactivity
14,QVQLVESGGGLVQAGGSLRLICAASGLTFFSYAMGWYRQATGKEREFVAAITRRGGRTYYADSVKGRFTISRENANNTVYLQMNSLKPEDTAVYYCNAVPVLISVYRMEYWGQGTQVNVSS,high polyreactivity
15,QVQLVESGGGLVQAGGSLRLICAASGLTFLYYTMVWYRQEPGNERELVAAITSGASTNYADSVKGRFTISRDNAKNTVYLQMNSLIPEDTAVYYCAARYVGPFAWYSGYDYWGQGTQVTVSS,low polyreactivity
16,QVQLVESGGGLVQAGGSLRLICAASGLTFVHNAMGWYRQAPGKERELVAAISSSGGRTYYADSVKARFTISRDNAKNTVYLQMNSLKPEDTAVYYCNKAAFNYYLYGYWGQGTQVTVSS,high polyreactivity
17,QVQLVESGGGLVQAGGSLRLICAASGLTFVPNAMGWYRQAPGKERELVAGITSAGSTYYADSVKGRFTISRDNAKNTVYLQMNSLKPEDTAVYYCAKQFYRGFRYGYWGQGTQVTVSS,high polyreactivity
18,QVQLVESGGGLVQAGGSLRLICAASGNSYIYNAMGSYRQAPGKEMELVAAISSRGGTTSDAVSVKGRFTISRDHAKNTVYFQMNSLKPEDTAVYYCAARQVVPSYRYPYGYWGQGTQVTVSS,high polyreactivity
19,QVQLVESGGGLVQAGGSLRLICAASGNTFVRYYMGWYRQAPGKEREFVAAITASGGSTFADSVKGRFTISRDNAKNTVYLQMNSLKPEDTAVYYCNAGNSSTGVDRYDYWGQGTQVSVSS,low polyreactivity
20,QVQLVESGGGLVQAGGSLRLICAASGNTLIVNAMGWYRQAPGKERELVAAITRDGRTNYADSVKGRFTISRDNAKNTVYLQMNSLKPEDTAVYYCAARLAQSTGYGYWGQGTQVTVSS,low polyreactivity
